Changes are numbered by the printed parent chain. Names may count otherwise.
B1: FIXa-D104N/K106S/I251S/R318Y/R338E/E410N (protein)
chain 1: YNSGKLEEFVQGNLERECMEEKCSFEEAREVFENTERTTEFWKQYVDGDQCESNPCLNGGSCKDDINSYECWCPFGFEGKNCELDVTCNIKNGRCEQFCKNSANNSVVCSCTEGYRLAENQKSCEPAVPFPCGRVSVSQTSKLTR
chain 2: VVGGEDAKPGQFPWQVVLNGKVDAFCGGSIVNEKWIVTAAHCVETGVKITVVAGEHNIEETEHTEQKRNVSRIIPHHNYNAAINKYNHDIALLELDEPLVLNSYVTPICIADKEYTNIFLKFGSGYVSGWGRVFHKGYSALVLQYLRVPLVDRATCLESTKFTIYNNMFCAGFHEGGRDSCQGDSGGPHVTEVEGTSFLTGIISWGEECAMKGKYGIYTKVSRYVNWIKNKTKLT
B2: FIXa-R318Y/R338E/R403E/E410S (protein)
chain 1: B1 chain 1 with N104D, S106K
chain 2: B1 chain 2 with S71I, R223E, N230S
B3: FIXa-N260S/R318Y/R338E/R403E/E410N (protein)
chain 1: B1 chain 1 with N104D, S106K
chain 2: B1 chain 2 with S71I, N80S, R223E
B4: FIXa-I251S/R318Y/R338E/R403E/E410N (protein)
chain 1: B1 chain 1 with N104D, S106K
chain 2: B1 chain 2 with R223E
B5: FIXa-D104N/K106S/N260S/R318Y/R338E/R403E/E410N (protein)
chain 1: B1 chain 1
chain 2: B1 chain 2 with S71I, N80S, R223E
B6: FIXa-D104N/K106S/K247N/N249S/R318Y/R338E/R403E/E410N (protein)
chain 1: B1 chain 1
chain 2: B1 chain 2 with K67N, N69S, S71I, R223E
B7: FIXa-Y259F/K265T/Y345T (protein)
chain 1: B1 chain 1 with N104D, S106K
chain 2: B1 chain 2 with S71I, Y79F, K85T, Y138R, E158R, Y165T, N230E
B8: FIXa-R318Y/R338E/E410S (protein)
chain 1: B1 chain 1 with N104D, S106K
chain 2: B1 chain 2 with S71I, N230S
B9: FIXa-K228N/K247N/N249S/R318Y/R338E/R403E/E410N (protein)
chain 1: B1 chain 1 with N104D, S106K
chain 2: B1 chain 2 with K48N, K67N, N69S, S71I, R223E

Key:
[1] = biological target: Factor X, P00742
[2] = biological target: plasma purified human AT-III (antithrombin III); test: AT-III/UFH inhibition K0.5, ratio to Catalyst Biosciences WT FIXa
[3] = biological target: T1, plasma purified human antithrombin III (AT-III), as complex with unfractionated heparin; test: ratio of K0.5 to Catalyst Biosciences WT FIXa, AT-III/UFH inhibition
[4] = biological target: Factor X (FX), P00742
[5] = biological target: T1, plasma purified human antithrombin III …; test: ratio of K0.5 (lower limit) to Catalyst Biosciences WT FIXa, AT-III/UFH inhibition

Sequence of Factor X, P00742 (P00742 whole entry, looked up): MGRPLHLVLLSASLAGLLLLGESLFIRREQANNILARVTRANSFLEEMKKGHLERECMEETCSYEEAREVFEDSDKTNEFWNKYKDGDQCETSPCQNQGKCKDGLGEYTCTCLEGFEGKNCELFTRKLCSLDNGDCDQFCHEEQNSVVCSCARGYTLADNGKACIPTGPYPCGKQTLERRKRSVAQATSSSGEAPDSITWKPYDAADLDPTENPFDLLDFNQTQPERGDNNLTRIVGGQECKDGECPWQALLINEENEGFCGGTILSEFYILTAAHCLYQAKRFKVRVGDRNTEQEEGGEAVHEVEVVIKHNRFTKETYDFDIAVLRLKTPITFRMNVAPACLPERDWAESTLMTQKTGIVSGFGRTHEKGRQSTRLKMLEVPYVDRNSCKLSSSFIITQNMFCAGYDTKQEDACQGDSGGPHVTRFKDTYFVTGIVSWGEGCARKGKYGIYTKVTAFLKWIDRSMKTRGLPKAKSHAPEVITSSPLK
Sequence of Factor X (FX), P00742 (P00742 whole entry, looked up): as above

Row | Protein | % of WT kcat/KM [1] | KM [1] | kcat/KM [1] | K0.5-mut/K0.5-wt [2] | K0.5-mut/K0.5-wt [3] | % of WT kcat/KM [4] | kcat [4] | kcat of FX activation by FIXa (Xase complex with FVIIIa, PC/PS vesicles, Ca2+) [4] | kcat/KM [4] | K0.5-mut/K0.5-wt [5] | KM [4] | kcat [1]
1 | B1 | 300% | 0.0243 µM | 1.3e+08 M⁻¹ s⁻¹ | 464 | 464 |  |  |  |  |  |  | 
2 | B2 | 401% | 0.0351 µM | 1.8e+08 M⁻¹ s⁻¹ | > 517 |  | 458% | 5.8 s⁻¹ | 7.4 s⁻¹ | 2.1e+08 M⁻¹ s⁻¹ | 517 |  | 
3 | B3 | 117% |  | 5.3e+07 M⁻¹ s⁻¹ | > 517 |  |  |  | 3.8 s⁻¹ |  | 517 | 0.0724 µM | 3.8 s⁻¹
4 | B4 | 344% | 0.0334 µM | 1.5e+08 M⁻¹ s⁻¹ | > 517 |  | 334% | 4.8 s⁻¹ |  | 1.5e+08 M⁻¹ s⁻¹ | 517 |  | 
5 | B5 | 196% |  | 8.8e+07 M⁻¹ s⁻¹ | > 517 |  |  |  | 5.4 s⁻¹ |  | 517 | 0.0611 µM | 5.4 s⁻¹
6 | B6 | 197% | 0.059 µM | 8.8e+07 M⁻¹ s⁻¹ | > 517 |  | 192% | 5.2 s⁻¹ |  | 8.8e+07 M⁻¹ s⁻¹ | 517 |  | 
7 | B7 |  |  |  | 0.3 | 0.3 |  |  |  |  |  |  | 
8 | B8 | 730% | 0.0164 µM | 3.3e+08 M⁻¹ s⁻¹ | 279 | 279 |  |  |  |  |  |  | 
9 | B9 | 258% |  | 1.2e+08 M⁻¹ s⁻¹ | > 517 |  |  |  | 7.1 s⁻¹ |  | 517 | 0.0558 µM | 6.1 s⁻¹

— patent US20210238260
